Assay results taken from US20240016952A1 (published 2024).
Where a chain is given by its changes, count along the chain named. Names may count otherwise.

T1: cynomolgus monkey transferrin receptor 1 (cTfR1) (cynomolgus monkey (Macaca fascicularis), UniProt Q5RDH6 89-760 (Pongo abelii entry), limits assumed)
T1 construct: Recombinant cynomolgus TfR1; also called cyTfR1; cyno TfR1
T1 chain: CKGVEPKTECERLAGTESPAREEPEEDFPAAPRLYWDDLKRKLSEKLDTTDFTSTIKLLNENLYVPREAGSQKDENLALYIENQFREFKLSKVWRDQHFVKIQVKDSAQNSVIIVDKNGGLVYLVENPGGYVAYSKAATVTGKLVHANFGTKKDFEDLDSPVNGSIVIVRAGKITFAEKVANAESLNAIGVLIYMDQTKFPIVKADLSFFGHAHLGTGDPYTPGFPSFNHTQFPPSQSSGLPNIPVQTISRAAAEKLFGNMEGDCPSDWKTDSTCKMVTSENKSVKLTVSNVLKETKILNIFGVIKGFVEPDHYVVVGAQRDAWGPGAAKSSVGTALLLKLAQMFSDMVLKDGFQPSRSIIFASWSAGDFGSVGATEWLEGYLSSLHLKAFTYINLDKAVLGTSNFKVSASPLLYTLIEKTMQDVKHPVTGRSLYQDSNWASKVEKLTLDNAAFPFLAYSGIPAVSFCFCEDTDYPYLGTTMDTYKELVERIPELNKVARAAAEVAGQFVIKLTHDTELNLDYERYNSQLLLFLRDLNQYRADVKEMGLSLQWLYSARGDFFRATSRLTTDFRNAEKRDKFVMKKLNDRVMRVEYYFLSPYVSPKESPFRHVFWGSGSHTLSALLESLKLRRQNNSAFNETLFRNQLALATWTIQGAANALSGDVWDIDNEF

B1: humanized anti-TfR Fab 3M12 VH3/Vk2 (Fab, V domains shown)
VH: QVQLQESGPGLVKPSQTLSLTCSVTGYSITSGYYWNWIRQPPGKGLEWMGYITFDGANNYNPSLKNRVSISRDTSKNQFSLKLSSVTAEDTATYYCTRSSYDYDVLDYWGQGTTVTVSS
VL: DIQMTQSPSSLSASVGDRVTITCRASQDISNFLNWYQQKPGQPVKLLIYYTSRLHSGVPSRFSGSGSGTDFTLTISSLQPEDFATYFCQQGHTLPYTFGQGTKLEIKR
B2: humanized anti-TfR Fab 3M12 VH4/Vk2 (Fab, V domains shown)
VH: B1 VH with S23T, M49I
VL: B1 VL
B3: humanized anti-TfR Fab 3M12 VH3/Vk3 (Fab, V domains shown)
VH: B1 VH
VL: B1 VL with F87Y
B4: humanized anti-TfR Fab 5H12 VH5 (C33Y)/Vk4 (Fab, V domains shown)
VH: QVQLVQSGAEVKKPGASVKVSCKASGYSFTDYYINWVRQAPGQGLEWMGWIYPGSGNTRYSERFKGRVTITRDTSASTAYMELSSLRSEDTAVYYCAREDYYPYHGMDYWGQGTLVTVSS
VL: DIVMTQSPDSLAVSLGERATINCRASESVDGYDNSFMHWYQQKPGQPPKLLIFRASNLESGVPDRFSGSGSGTDFTLTISSLQAEDVAVYYCQQSSEDPWTFGQGTKLEIKR
notes: also called 5H12 (VH4-C33Y/Vk4)
B5: humanized anti-TfR Fab 5H12 VH5 (C33D)/Vk4 (Fab, V domains shown)
VH: B4 VH with Y33D
VL: B4 VL
B6: humanized anti-TfR Fab 5H12 VH5 (C33Y)/Vk3 (Fab, V domains shown)
VH: B4 VH
VL: B4 VL with M4L, G72R
B7: humanized anti-TfR Fab 3A4 VH3 (N54T)/Vk4 (Fab, V domains shown)
VH: EVQLVQSGSELKKPGASVKVSCTASGFNIKDDYMYWVRQPPGKGLEWIGWIDPETGDTEYASKFQDRVTVTADTSTNTAYMELSSLRSEDTAVYYCTLWLRRGLDYWGQGTLVTVSS
VL: DIVMTQSPLSLPVTPGEPASISCRSSKSLLHSNGYTYLFWFQQRPGQSPRLLIYRMSNLASGVPDRFSGSGSGTDFTLKISRVEAEDVGVYYCMQHLEYPFTFGGGTKVEIKR
B8: humanized anti-TfR Fab 3M12 VH3/Vk2 conjugated to DMPK-targeting oligonucleotide ASO300 (Fab, V domains shown)
VH: B1 VH
VL: B1 VL
modifications: Fab conjugated to oligonucleotide ASO300; chain and residue not stated
notes: Fab-oligonucleotide conjugate; The protein chains are those of the unconjugated Fab
B9: humanized anti-TfR Fab 3M12 VH4/Vk3 conjugated to DMPK-targeting oligonucleotide ASO300 (Fab, V domains shown)
VH: B1 VH with S23T, M49I
VL: B1 VL with F87Y
modifications: Fab conjugated to oligonucleotide ASO300; chain and residue not stated
notes: as for B8
B10: humanized anti-TfR Fab 5H12 VH5 (C33Y)/Vk4 conjugated to DMPK-targeting oligonucleotide ASO300 (Fab, V domains shown)
VH: B4 VH
VL: B4 VL
modifications: Fab conjugated to oligonucleotide ASO300; chain and residue not stated
notes: Fab-oligonucleotide conjugate; also called 5H12 (VH4-C33Y/Vk4) conjugate
B11: humanized anti-TfR Fab 5H12 VH5 (C33D)/Vk4 conjugated to DMPK-targeting oligonucleotide ASO300 (Fab, V domains shown)
VH: B4 VH with Y33D
VL: B4 VL
modifications: Fab conjugated to oligonucleotide ASO300; chain and residue not stated
notes: as for B8
B12: humanized anti-TfR Fab 5H12 VH5 (C33Y)/Vk3 conjugated to DMPK-targeting oligonucleotide ASO300 (Fab, V domains shown)
VH: B4 VH
VL: B4 VL with M4L, G72R
modifications: Fab conjugated to oligonucleotide ASO300; chain and residue not stated
notes: as for B8
B13: humanized anti-TfR Fab 3A4 VH3 (N54T)/Vk4 conjugated to DMPK-targeting oligonucleotide ASO300 (Fab, V domains shown)
VH: B7 VH
VL: B7 VL
modifications: Fab conjugated to oligonucleotide ASO300; chain and residue not stated
notes: as for B8
B14: humanized anti-TfR Fab 3A4 VH3/Vk4 conjugated to DMPK-targeting oligonucleotide ASO300 (Fab, V domains shown)
VH: B7 VH with T55N
VL: B7 VL
modifications: Fab conjugated to oligonucleotide ASO300; chain and residue not stated
notes: as for B8
B15: humanized anti-TfR Fab 3A4 VH3 (N54S)/Vk4 conjugated to DMPK-targeting oligonucleotide ASO300 (Fab, V domains shown)
VH: B7 VH with T55S
VL: B7 VL
modifications: Fab conjugated to oligonucleotide ASO300; chain and residue not stated
notes: as for B8
B16: 3-M12 mouse monoclonal anti-TfR1 antibody (antibody, V domains shown)
VH: DVQLQESGPGLVKPSQSLSLTCSVTGYSITSGYYWNWIRQFPGNKLEWMGYITFDGANNYNPSLKNRISITRDTSKNQFFLKLTSVTTEDTATYYCTRSSYDYDVLDYWGQGTTLTVSS
VL: DIQMTQTTSSLSASLGDRVTISCRASQDISNFLNWYQQRPDGTVKLLIYYTSRLHSGVPSRFSGSGSGTDFSLTVSNLEQEDIATYFCQQGHTLPYTFGGGTKLEIK
notes: Mouse mAb (IgG)
B17: 5-H12 mouse monoclonal anti-TfR1 antibody (antibody, V domains shown)
VH: QIQLQQSGPELVRPGASVKISCKASGYSFTDYCINWVNQRPGQGLEWIGWIYPGSGNTRYSERFKGKATLTVDTSSNTAYMQLSSLTSEDSAVYFCAREDYYPYHGMDYWGQGTSVTVSS
VL: DIVLTQSPTSLAVSLGQRATISCRASESVDGYDNSFMHWYQQKPGQPPKLLIFRASNLESGIPARFSGSGSRTDFTLTINPVEAADVATYYCQQSSEDPWTFGGGTKLEIK
notes: Mouse mAb (IgG)
B18: 3-A4 mouse monoclonal anti-TfR1 antibody (antibody, V domains shown)
VH: EVQLQQSGAELVRPGASVKLSCTASGFNIKDDYMYWVKQRPEQGLEWIGWIDPENGDTEYASKFQDKATVTADTSSNTAYLQLSSLTSEDTAVYYCTLWLRRGLDYWGQGTSVTVSS
VL: DIVMTQAAPSVPVTPGESVSISCRSSKSLLHSNGYTYLFWFLQRPGQSPQLLIYRMSNLASGVPDRFSGSGSGTAFTLRISRVEAEDVGVYYCMQHLEYPFTFGGGTKLEIK
notes: Mouse mAb (IgG); also called 3-A04

Molecular target: T1, cynomolgus monkey transferrin receptor …
Assay: ELISA, cyno TfR1, Fab after 9 days at 40 C

Binding affinity cyno TfR1 d 9 [nM]	Binder
19.5	B1
5.01	B2
15.6	B3
0.26	B4
0.63	B5
0.69	B6
128	B7

Molecular target: T2, human transferrin receptor 1 (hTfR1) (human, UniProt P02786 89-760)
T2 construct: Recombinant human TfR1; also called huTfR1; Human TfR1
T2 sequence (P02786 89-760 limits assumed): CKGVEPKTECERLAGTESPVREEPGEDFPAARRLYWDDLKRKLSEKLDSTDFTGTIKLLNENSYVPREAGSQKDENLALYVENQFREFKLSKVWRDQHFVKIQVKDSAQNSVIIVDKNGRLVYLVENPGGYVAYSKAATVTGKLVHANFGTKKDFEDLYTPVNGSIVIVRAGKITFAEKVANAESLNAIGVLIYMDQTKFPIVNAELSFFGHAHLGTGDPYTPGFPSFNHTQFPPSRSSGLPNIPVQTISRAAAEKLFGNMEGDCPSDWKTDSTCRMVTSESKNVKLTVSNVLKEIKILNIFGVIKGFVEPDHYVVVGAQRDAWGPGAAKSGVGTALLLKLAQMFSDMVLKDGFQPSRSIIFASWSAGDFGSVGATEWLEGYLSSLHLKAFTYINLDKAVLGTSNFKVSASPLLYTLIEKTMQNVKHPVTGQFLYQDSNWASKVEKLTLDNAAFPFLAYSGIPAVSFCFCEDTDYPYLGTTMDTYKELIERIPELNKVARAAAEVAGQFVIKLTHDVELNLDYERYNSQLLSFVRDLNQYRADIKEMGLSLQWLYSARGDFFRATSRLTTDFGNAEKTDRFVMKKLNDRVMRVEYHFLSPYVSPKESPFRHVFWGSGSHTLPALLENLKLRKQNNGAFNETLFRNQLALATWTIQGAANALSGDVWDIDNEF
Assay: ELISA on plate-coated human TfR1, Fab-ASO300 conjugate

Conjugate binding affinity ELISA [nM]	Binder
2.2	B8
1.7	B9
23.7	B10
110	B11
33.4	B12
2.8	B13
2.8	B14
2.9	B15

Molecular target: T1, cynomolgus monkey transferrin receptor …
Assay: ELISA, cyno TfR1, Fab-ASO300 conjugate

DMPK oligo conjugate binding to cyno TfR1 [nM]	Binder
2.26	B8
1.85	B9
13.9	B10
10.2	B11
5.12	B13
7.59	B14
4.1	B15

Molecular target: T1, cynomolgus monkey transferrin receptor …
Assay: ELISA on plate-coated cyno TfR1, unconjugated Fab

Fab binding affinity ELISA [nM]	Binder
9.9	B1
1.4	B2
4.7	B3
3.3	B4
3.5	B5
2.1	B6
156	B7

Molecular target: T1, cynomolgus monkey transferrin receptor …
Assay: ELISA on plate-coated cyno TfR1, Fab-ASO300 conjugate

Conjugate binding affinity ELISA [nM]	Binder
2.9	B8
2.1	B9
3.3	B10
10.2	B11
2.3	B12
4.7	B13
7.6	B14
7.8	B15

Molecular target: T1, cynomolgus monkey transferrin receptor …
Assay: ELISA, cyno TfR1, Fab, day 0 of thermal stability test

Binding affinity cyno TfR1 d 0 [nM]	Binder
9.9	B1
1.4	B2
4.7	B3
3.3	B4
3.5	B5
2.1	B6
156	B7

Molecular target: T1, cynomolgus monkey transferrin receptor …
Assay: average KD, antibody alone; method not given

Kd [nM]	Binder
5.18	B16
12	B17
2.32	B18
